Experimental data from CN114573704A (dated 2022).

How the values were obtained:
[1] = molecular target: T1, 筛选及检测用人PD-1抗原 (human PD-1 extracellular domain with His tag, Sino Biological Cat.10377-H08H) (human, UniProt Q15116 25-167); test: SPR Biacore T200, antibody captured on protein A CM5 chip, PD-1-His as analyte
T1 construct: Bought product; the entry holds the extracellular domain and the His tag; also called PD-1蛋白

[2] = molecular target: T2, 筛选及检测用人PD-1-Fc抗原 (human PD-1-Fc, 百英生物 B3789) (human); test: competition ELISA, PD-1-Fc coated, biotinylated PD-L1 as competitor, antibody titrated
T2 construct: also called 带Fc标签的PD-1融合蛋白

- Kd [1]: 7.75 nM
- koff [1]: 0.000479 s⁻¹
- kon [1]: 61800 M⁻¹ s⁻¹
- IC50 [2]: 2.79 nM
B1: WO2017054646中的IgG4型PD-1Ab646 (antibody, V domains shown)
VH: EVQLVESGGGLVQPGGSLRLSCAASGFTFSSYMMSWVRQAPGKGLEWVATISGGGANTYYPDSVKGRFTISRDNAKNSLYLQMNSLRAEDTAVYYCARQLYYFDYWGQGTTVTVSS
VL: DIQMTQSPSSLSASVGDRVTITCLASQTIGTWLTWYQQKPGKAPKLLIYTATSLADGVPSRFSGSGSGTDFTLTISSLQPEDFATYYCQQVYSIPWTFGGGTKVEIKR
notes: IgG4 positive control
